In US20050054047A1 (Amgen, published 2005):

How the values were obtained:
human TWEAK receptor = target: T1, human TWEAK receptor (human, UniProt Q9NP84 28-129); assay: slide binding on transfected COS cells, I-125 anti-leucine-zipper antibody, autoradiography
T1 construct: Expressed on COS cells from an expression vector; The entry includes the signal peptide
T1 sequence: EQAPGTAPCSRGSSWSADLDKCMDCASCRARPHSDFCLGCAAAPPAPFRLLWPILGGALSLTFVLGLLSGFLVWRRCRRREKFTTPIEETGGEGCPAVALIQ
Description: (§1) Slides of COS cells were transfected with expression vectors containing TWEAKR, DR3, or vector without insert (control). After two days the cells were incubated with concentrated supernatants from CV-1 cells transfected with a vector encoding the leucine zipper TWEAK extracellular domain fusion protein. One hour later the cells were washed and probed with an I-125 labeled antibody against the leucine-zipper domain. The slides were washed, fixed, and autoradiography was performed using x-ray film. The TWEAKR transfected cells bound significant amounts of TWEAK. […] This experiment confirmed that the TWEAKR polypeptide identified in part A above, rather than DR3, is the major receptor for TWEAK. After discovery of the functional TWEAK receptor, other investigators also reported that DR3 is not the major receptor for TWEAK (Kaptein et al., FEBS Lett., 485(2-3): 135, 2000. The TWEAK-TWEAKR binding interaction was further characterized by Scatchard analysis.

DR3 = target: T2, DR3 (UniProt Q93038 25-417, limits assumed); assay: as above
T2 construct: whole, on cells; also called Apo3; WSL-1
T2 sequence (looked up): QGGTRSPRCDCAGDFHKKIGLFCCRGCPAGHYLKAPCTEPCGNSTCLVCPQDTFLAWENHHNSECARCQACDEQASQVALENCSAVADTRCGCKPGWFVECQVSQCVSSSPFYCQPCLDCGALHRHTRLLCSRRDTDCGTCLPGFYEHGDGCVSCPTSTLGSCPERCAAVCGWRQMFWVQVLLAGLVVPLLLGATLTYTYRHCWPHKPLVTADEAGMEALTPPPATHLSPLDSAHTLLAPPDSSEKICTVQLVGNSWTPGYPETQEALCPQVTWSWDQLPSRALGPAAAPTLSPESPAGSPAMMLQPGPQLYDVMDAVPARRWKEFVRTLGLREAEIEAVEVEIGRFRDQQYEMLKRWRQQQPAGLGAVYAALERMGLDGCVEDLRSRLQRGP
Description: as §1

binding result (human TWEAK receptor): binds
binding result (DR3): no binding
B1: leucine zipper TWEAK extracellular domain fusion protein (ligand)
chain: not shown
notes: Used as concentrated supernatant from transfected CV-1 cells; also called LZ-TWEAK; pDC409-LZ-TWEAK product
